Results: paper PMC8216286

Tests used:
[1] = tested on: SauCas9 (Staphylococcus aureus); assay: BLI; conditions: 10 mM Mg2+, BLI: 20 mM HEPES pH 7.55, 100 mM KCl, 10 mM MgCl2, 1 mM DTT, 5% (w/v) glycerol, 20 C, complex for crystals: 10 mM Tris-HCl pH 8.0, 300 mM NaCl, 3 mM DTT
[2] = target: Staphylococcus aureus Cas9 (SauCas9), wild type (Staphylococcus aureus) (UniProt J7RUA5); assay: BLI; biotinylated SauCas9 protein (or SauCas9-sgRNA complex) loaded on streptavidin biosensors for 60 s; 20°C; 20 mM HEPES pH 7.55, 100 mM KCl, 10 mM MgCl2, 1 mM DTT, 5% glycerol; four or five concentrations of sample
[3] = target: SauCas9 (N580A/C946A) (Staphylococcus aureus) (UniProt J7RUA5); assay: crystal structure; SauCas9 (N580A/C946A)-sgRNA-AcrIIA14ct-dsDNA quaternary complex, mixed at 1:1.2:5:2, purified by SEC; hanging drop, 20°C; 2.22 Å

**Q.** How did the Kd ([1]; target DNA as analyte, SauCas9-sgRNA complex presumably immobilized) turn out when SauCas9 sgRNA / target DNA (BLI) was run?
**A.** The Kd was 0.535 nM.

**Q.** For SauCas9 sgRNA (BLI), which Kd ([1]; biotinylated SauCas9 on streptavidin sensor) is on record?
**A.** The Kd was 0.473 nM.

**Q.** “AcrIIA14ct mutant H56K (domain or fragment)” was tested. Which Kd [2] did it give?
**A.** Its Kd is 58 nM.

**Q.** For “AcrIIA14ct (C-terminal domain of AcrIIA14, residues 60-159) (domain or fragment)”, which stoichiometry N (AcrIIA14ct per SauCas9) [3] is on record?
**A.** The stoichiometry N (AcrIIA14ct per SauCas9) was 1.

**Q.** What about the Kd [2] of the same substance?
**A.** Its Kd is 0.00558 nM.
